Experiment [1] deals with T1, human FcγRI (human, UniProt P12314 16-288, limits assumed). The experiment is described as follows: ELISA.
The target in experiment [2] is complement component C1q (human, UniProt P02745 23-245; P02746 28-253; P02747 29-245). Description: ELISA. A general note: An ELISA detects its analyte on a solid surface through an enzyme-linked reagent.
Experiment [3] deals with T2, recombinant soluble human iTCR (Hu-siTCR) (human).
T2 construct: Bought recombinant soluble heterodimer, coated on nickel (HIS-Select) plates; also called recombinant TCR heterodimer (Precision Antibody); purified TCR heterodimer
The experiment is described as follows: ELISA using Hu-siTCR.

Experiment [4] has as its target T2, recombinant soluble human iTCR …. Description: SPR (BIAcore). Background: Surface plasmon resonance follows binding to a sensor surface in real time, without labels.
Experiment [5] concerns the target T1, human FcγRI. The experiment is described as follows: summary of Example 2.
Experiment [6] concerns the target T2, recombinant soluble human iTCR …. Description: competition ELISA on plate-bound recombinant TCR heterodimer; competitor biotinylated chimeric 6B11 IgG1; IC50 of test divided by IC50 of reference.
Experiment [7] has as its target T1, human FcγRI. Description: ELISA / BIAcore, not said which.
Experiment [8] addresses T3, FcγRIII (human).
T3 construct: also called Fc-gamma-RIII
The experiment is described as follows: in vitro binding experiments, afucosylated against fucosylated IgG1; reference not named.

One may read the IC50 as the concentration needed to halve the response being measured. The term Kd denotes the equilibrium constant for the complex coming apart.

T1 sequence (P12314 16-288 limits assumed): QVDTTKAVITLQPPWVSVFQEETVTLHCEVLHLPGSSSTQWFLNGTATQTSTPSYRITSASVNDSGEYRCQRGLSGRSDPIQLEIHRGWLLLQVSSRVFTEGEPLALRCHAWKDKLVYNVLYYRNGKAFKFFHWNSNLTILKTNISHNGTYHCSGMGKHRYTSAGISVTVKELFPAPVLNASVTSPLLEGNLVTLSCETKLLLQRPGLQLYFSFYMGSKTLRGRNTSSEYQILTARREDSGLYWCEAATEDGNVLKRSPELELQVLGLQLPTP
Chain of complement component C1q (P02745 23-245 limits assumed, chain 1 of 3): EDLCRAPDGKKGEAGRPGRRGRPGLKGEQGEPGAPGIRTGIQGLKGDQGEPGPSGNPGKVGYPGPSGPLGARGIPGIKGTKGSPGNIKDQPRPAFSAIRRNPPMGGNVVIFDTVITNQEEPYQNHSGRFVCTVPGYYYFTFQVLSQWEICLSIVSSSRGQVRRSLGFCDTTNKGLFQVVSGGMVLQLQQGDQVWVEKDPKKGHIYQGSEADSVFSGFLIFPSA
Chain of complement component C1q (P02746 28-253 limits assumed, chain 2 of 3): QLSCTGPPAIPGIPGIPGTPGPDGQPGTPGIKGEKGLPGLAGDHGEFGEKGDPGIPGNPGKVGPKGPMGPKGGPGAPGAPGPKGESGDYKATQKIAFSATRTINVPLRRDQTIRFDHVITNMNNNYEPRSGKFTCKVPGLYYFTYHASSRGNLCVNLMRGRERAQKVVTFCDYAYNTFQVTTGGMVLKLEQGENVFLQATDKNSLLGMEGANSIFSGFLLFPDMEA
Chain of complement component C1q (P02747 29-245 limits assumed, chain 3 of 3): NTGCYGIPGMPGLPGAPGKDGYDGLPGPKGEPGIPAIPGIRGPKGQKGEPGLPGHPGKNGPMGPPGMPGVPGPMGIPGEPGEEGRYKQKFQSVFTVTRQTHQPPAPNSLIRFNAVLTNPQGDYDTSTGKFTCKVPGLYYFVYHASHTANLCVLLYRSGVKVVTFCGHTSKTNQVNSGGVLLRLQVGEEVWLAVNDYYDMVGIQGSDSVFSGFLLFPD
T3 sequence (P08637 17-208): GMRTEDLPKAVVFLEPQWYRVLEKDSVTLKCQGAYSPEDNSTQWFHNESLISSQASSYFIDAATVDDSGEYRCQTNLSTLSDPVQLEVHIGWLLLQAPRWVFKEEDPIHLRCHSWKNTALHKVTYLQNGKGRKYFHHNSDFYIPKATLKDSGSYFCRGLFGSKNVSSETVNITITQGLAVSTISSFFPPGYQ

B1: NKTT103 (6B11 chimeric IgG1 control antibody) (antibody)
heavy: not shown
light: DIVMTQSHKFMSTSVGDRVSITCKASQDVSTAVAWYQQKPGQSPKLLIYWASTRHTGVPDRFTGSGSGTDYTLTISSVQAEDLALYYCQQHYSTPWTFGGGTKLEIKRTVAAPSVFIFPPSDEQLKSGTASVVCLLNNFYPREAKVQWKVDNALQSGNSQESVTEQDSKDSTYSLSSTLTLSKADYEKHKVYACEVTHQGLSSPVTKSFNRGEC
notes: Murine 6B11 V regions on human IgG1; also called chimeric 6B11 IgG1; chimeric 6B11 mAb
For the molecule B1, the binding result in experiment [1] and in experiment [2] was “binds” in each case. For the same molecule, the IC50 in experiment [3] was found to be 1 µg/mL.

B2: NKTT120 (antibody, human IgG1, kappa)
heavy: not shown
light: DIQMTQSPSSLSASVGDRVTITCKASQDVSTAVAWYQQKPGQAPRLLIYWASTRHTGVPSRFSGSGSGTDFTLTISSLQPEDFALYYCQQHYSTPWTFGQGTKLEIKRTVAAPSVFIFPPSDEQLKSGTASVVCLLNNFYPREAKVQWKVDNALQSGNSQESVTEQDSKDSTYSLSSTLTLSKADYEKHKVYACEVTHQGLSSPVTKSFNRGEC
notes: Humanized IgG1 with VH4 and VK4; also called VH 4/VK4; VH 4/Vκ4
For the molecule B2, the dissociation constant Kd in experiment [4] was roughly 60 nM. The IC50 in experiment [3] is 0.2 µg/mL. Further, the binding result in experiment [5] was “binds”. Besides, in experiment [6], the “Relative IC50” value was 0.212 ratio to chimeric 6B11 IgG1.

B3: NKTT320 (antibody, human IgG4 S228P, kappa)
heavy: not shown
light: DIQMTQSPSSLSASVGDRVTITCKASQDVSTAVAWYQQKPGQAPRLLIYWASTRHTGVPSRFSGSGSGTDFTLTISSLQPEDFALYYCQQHYSTPWTFGQGTKLEIKRTVAAPSVFIFPPSDEQLKSGTASVVCLLNNFYPREAKVQWKVDNALQSGNSQESVTEQDSKDSTYSLSSTLTLSKADYEKHKVYACEVTHQGLSSPVTKSFNRGEC
notes: also called modified IgG4 anti-iNKT mAb
With B3, the binding result in experiment [7] is listed as “no binding”.

B4: NKTT219 (antibody, human IgG1)
heavy: not shown
VL: DIVMTQSPSSLSASVGDRVTITCKASQDVSTAVAWYQQKPGQAPRLLIYWASTRHTGVPSRFSGSGSGTDFTLTISSLQPEDFALYYCQQHYSTPWTFGQGTKLEIK
modifications: non-fucosylated (afucosylated) carbohydrate in the Fc portion
notes: also called ADCC-enhanced humanized IgG1
Turning to B4, the “fold improvement of binding” value in experiment [8] was no more than 100 fold.

The record behind these values is patent US20130136735A1 (NKT THERAPEUTICS, published 2013).
